Target: GluN2B-containing NMDA receptor (GluN1a/GluN2B)
Test: cell-based or functional assay

B1: Con-G-like APP (cAPP) (peptide)
peptide: ADTDYADGSEDKVVE
- inhibition of receptor currents, two-electrode voltage clamp, Xenopus oocytes: < 30%
